Laboratory results from IntAct's records for PubMed 19351902.

B1: Short transient receptor potential channel 3 (Mus musculus), Q9QZC1 (parent)
chain: MSTKVKKCREPARVTLPAPEEEEDGEAEGGESQRRRRGWRGVNGGLEPPCPRAPPSPGPDASSEGSPSRWRTAGMRDKGRRQAVRGPAFMFGARGPSLTAEEERFLDAAEYGNIPVVRKMLEESRTLNVNCVDYMGQNALQLAVGNEHLEVTELLLKKENLARIGDALLLAISKGYVRIVEAILGHPGFAASRRLTLSPCEQELRDDDFYAYDEDGTRFSPDITPIILAAHCHKYEVVHLLLLKGARIERPHDYFCRCSDCAEKQRLDAFSHSRSRINAYKGLASPAYLSLSSEDPVLTALELSNELAKLANIEKEFKNDYRKLSMQCKDFVVGVLDLCRDSEEVEAILNGDLESAEPLERHGHKASLSRVKLAIKYEVKKFVAHPNCQQQLLTIWYENLSGLREQTIAIKCLVVLVVALGLPFLAIGYWIAPCSRLGKILRSPFMKFVAHAASFIIFLGLLVFNASDRFEGITTLPNITVIDYPKQIFRVKTTQFTWTEMLIMVWVLGMMWSECKELWLEGPREYIVQLWNVLDFGMLSIFIAAFTARFLAFLQATKAQQYVDSHVQESDLSEVTLPPEVQYFTYARDKWLPSDPQIISEGLYAIAVVLSFSRIAYILPANESFGPLQISLGRTVKDIFKFMVLFIMVFLAFMIGMFILYSYYLGAKVNPAFTTVEESFKTLFWSIFGLSEVTSVVLKYDHKFIENIGYVLYGIYNVTMVVVLLNMLIAMINSSYQEIEDDSDVEWKFARSKLWLSYFDDGKTLPPPFSLVPSPKSFVYFIMRITNFSKCRRRRLQKDLELGMGNSKSRLNLFTQSNSRVFESHSFNSILNQPTRYQQIMKRLIKRYVLKAQVDKENDEVNEGELKEIKQDISSLRYELLEDKSQATEELAILIHKLSEKLNPSVLRCE

Variants of: B1
Settings: with kpcg_human PRKCG

Row | Variant | effect of a mutation on the interaction
1 | T635A | disrupting interaction strength
